Laboratory results as given in article PMC7060279, “CCN1 is an opsonin for bacterial clearance and a direct activator of Toll-like receptor signaling” (Nature Communications, 2020).

How the values were obtained:
[1] = biological target: T1, human recombinant TLR2 protein (human, UniProt O60603 21-588); experiment: SPR; Biacore T-200; TLR2, TLR4 and integrin αvβ3 immobilised on a CM5 chip by amine coupling; CCN1 as analyte at 25 µl per min, 25 °C, phosphate buffer with 350 mM NaCl, 0.5 mM CaCl2, 0.5 mM MgCl2, 10 µg per ml BSA; global fit to 1:1 Langmuir model, KD = kd/ka; settings: both partners purified
T1 construct: Toll-like receptor 2, human, recombinant protein from R&D systems; also called hTLR2; source: bought: R&D systems

[2] = biological target: T2, human recombinant TLR4 protein (without MD2) (human, UniProt O00206 24-631); experiment: as above; settings: both partners purified
T2 construct: also called hTLR4; source: bought: R&D systems
T2 sequence (O00206 24-631): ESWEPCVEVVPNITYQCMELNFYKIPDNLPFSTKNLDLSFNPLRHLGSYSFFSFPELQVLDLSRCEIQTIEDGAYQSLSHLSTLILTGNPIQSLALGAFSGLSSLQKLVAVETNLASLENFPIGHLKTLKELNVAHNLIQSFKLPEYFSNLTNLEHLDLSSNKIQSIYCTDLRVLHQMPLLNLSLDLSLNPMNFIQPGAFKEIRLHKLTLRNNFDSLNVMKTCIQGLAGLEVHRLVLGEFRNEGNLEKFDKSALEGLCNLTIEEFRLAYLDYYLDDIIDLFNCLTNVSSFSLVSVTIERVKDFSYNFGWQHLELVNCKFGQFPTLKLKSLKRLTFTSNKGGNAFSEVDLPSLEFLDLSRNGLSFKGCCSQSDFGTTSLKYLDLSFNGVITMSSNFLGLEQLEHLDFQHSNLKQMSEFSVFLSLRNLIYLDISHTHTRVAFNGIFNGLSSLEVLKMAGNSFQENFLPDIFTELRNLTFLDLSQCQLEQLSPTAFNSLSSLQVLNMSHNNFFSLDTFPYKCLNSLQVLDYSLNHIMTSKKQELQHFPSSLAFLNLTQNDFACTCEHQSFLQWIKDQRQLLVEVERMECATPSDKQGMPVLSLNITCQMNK

T1 sequence (O60603 21-588): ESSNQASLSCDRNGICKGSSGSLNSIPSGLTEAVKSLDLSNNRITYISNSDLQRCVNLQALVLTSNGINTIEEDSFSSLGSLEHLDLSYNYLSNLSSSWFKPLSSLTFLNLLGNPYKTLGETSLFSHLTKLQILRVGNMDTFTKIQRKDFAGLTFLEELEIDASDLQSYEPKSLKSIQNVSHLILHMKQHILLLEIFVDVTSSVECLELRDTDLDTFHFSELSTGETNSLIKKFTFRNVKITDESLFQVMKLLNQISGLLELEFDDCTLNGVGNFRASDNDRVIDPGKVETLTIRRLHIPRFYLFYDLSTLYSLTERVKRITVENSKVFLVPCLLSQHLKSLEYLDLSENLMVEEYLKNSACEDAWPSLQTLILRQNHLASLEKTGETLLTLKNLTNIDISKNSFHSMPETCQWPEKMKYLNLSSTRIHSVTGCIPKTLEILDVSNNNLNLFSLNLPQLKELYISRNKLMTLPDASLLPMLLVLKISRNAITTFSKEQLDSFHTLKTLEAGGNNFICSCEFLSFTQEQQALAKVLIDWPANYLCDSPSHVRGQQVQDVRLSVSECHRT

- Kd [1]: 227 nM
- Kd [2]: 291 nM
B1: CCN1-WT (recombinant matricellular protein CCN1) (natural protein, UniProt P18406 25-379, looked up)
chain: TCPAACHCPLEAPKCAPGVGLVRDGCGCCKVCAKQLNEDCSKTQPCDHTKGLECNFGASSTALKGICRAQSEGRPCEYNSRIYQNGESFQPNCKHQCTCIDGAVGCIPLCPQELSLPNLGCPNPRLVKVSGQCCEEWVCDEDSIKDSLDDQDDLLGLDASEVELTRNNELIAIGKGSSLKRLPVFGTEPRVLFNPLHAHGQKCIVQTTSWSQCSKSCGTGISTRVTNDNPECRLVKETRICEVRPCGQPVYSSLKKGKKCSKTKKSPEPVRFTYAGCSSVKKYRPKYCGSCVDGRCCTPLQTRTVKMRFRCEDGEMFSKNVMMIQSCKCNYNCPHPNEASFRLYSLFNDIHKFRD
notes: CCN1 (CYR61), 40 kDa matricellular protein with IGFBP, vWC, TSR and CT domains; also called CYR61; Cyr61
